In article PMC4358659, “The functional interactome of PYHIN immune regulators reveals IFIX is a sensor of viral DNA”:

T1: GST-IFIX-HIN200 (human, UniProt Q6K0P9 200-492)
T1 sequence: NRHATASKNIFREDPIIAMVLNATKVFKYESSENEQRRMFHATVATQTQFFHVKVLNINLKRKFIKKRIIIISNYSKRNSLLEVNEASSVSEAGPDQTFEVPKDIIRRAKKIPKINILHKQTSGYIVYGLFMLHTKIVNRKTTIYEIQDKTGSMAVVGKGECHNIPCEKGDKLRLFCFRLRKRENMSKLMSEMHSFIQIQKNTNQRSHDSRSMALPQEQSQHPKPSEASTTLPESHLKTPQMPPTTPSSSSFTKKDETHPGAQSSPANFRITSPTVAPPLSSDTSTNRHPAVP


What was measured:
GST-IFIX-HIN200 [1] = molecular target: T1, GST-IFIX-HIN200; test: EMSA; 2 pmol protein, 20 fmol DNA; EMSA: 10 mM Tris pH 7.5, 50 mM KCl, 1 mM DTT, 50 μg/ml BSA, ambient temperature, 30 min; details: protein: recombinant; tags: N-terminal GST (pGEX-4T1); label: 5'-biotin on sense strand; blunt
GST-IFIX-HIN200 [2] = molecular target: T1, GST-IFIX-HIN200; test: competition; unlabeled ISD competes with biotinylated ISD (EMSA); EMSA: 10 mM Tris pH 7.5, 50 mM KCl, 1 mM DTT, 50 μg/ml BSA, ambient temperature, 30 min; details: protein: recombinant; tags: N-terminal GST (pGEX-4T1); blunt

Binder	binding result (GST-IFIX-HIN200 [1])	binding result (GST-IFIX-HIN200 [2])
ISD (biotinylated) (dsDNA) DNA 1: TACAGATCTACTAGTGATCTATGACTGATCTGTACATGATCTACA DNA 2: TGTAGATCATGTACAGATCAGTCATAGATCACTAGTAGATCTGTA	binds	
ISD (unlabeled competitor) (dsDNA) DNA 1: TACAGATCTACTAGTGATCTATGACTGATCTGTACATGATCTACA DNA 2: TGTAGATCATGTACAGATCAGTCATAGATCACTAGTAGATCTGTA		binds
